Measured values: article PMC10170517

How the values were obtained:
Test in all cases: potentiometry
Conditions in all cases: 298 K; 0.1 M NaClO4; metal-free peptide, random coil
Glu7 (position 7, …) [1] = target: Glu7 (position 7, …)
Glu7 (position 7, …) [2] = target: Glu7 (position 7, …); remark: listed apart in the source
Glu7 (position 7, …) [3] = target: Glu7 (position 7, …); remark: listed apart in the source
Glu7 (position 7, …) [4] = target: Glu7 (position 7, …); remark: listed apart in the source

Protein	pKa (Glu7 (position 7, …) [3])	other results
DKPAKAEDHDHQHGHAH [GroEL1 C-terminal tail peptide L5 (H12Q mutant of L2) (Mycobacterium tuberculosis; H12Q)]	–	pKa (Glu7 (position 7, …) [1]): 4.36
DKPAKAEDQDHHHGHAH [GroEL1 C-terminal tail peptide L3 (H9Q mutant of L2) (Mycobacterium tuberculosis; H9Q)]	–	pKa (Glu7 (position 7, …) [2]): 4.74
DKPAKAEDHDHHHGHAQ [GroEL1 C-terminal tail peptide L8 (H17Q mutant of L2) (Mycobacterium tuberculosis; H17Q)]	4.44	–
DKPAKAEDHDQHHGHAH [GroEL1 C-terminal tail peptide L4 (H11Q mutant of L2) (Mycobacterium tuberculosis; H11Q)]	–	pKa (Glu7 (position 7, …) [4]): 4.71
DKPAKAEDHDHHHGQAH [GroEL1 C-terminal tail peptide L7 (H15Q mutant of L2) (Mycobacterium tuberculosis; H15Q)]	4.45	–
DKPAKAEDHDHHQGHAH [GroEL1 C-terminal tail peptide L6 (H13Q mutant of L2) (Mycobacterium tuberculosis; H13Q)]	4.96	–
